± gives the uncertainty stated by the source.
Assay: self-splicing fitness, log relative to wild type (ln ratio); higher = more splicing; Tetrahymena group I intron in knt gene, E. coli kanamycin selection, DiMSum; sequences stand for … in CUCUCU…GGAGGGAAAAGUUAUCAGGCAUGCACCUGGUAGCUAGUCUUUAAACCAAUAGAUUGCAUCGGUUUAAAAGGCAAGACCGUCAAAUUGCGGGAAAGGGGUCAACAGCCGUUCAGUACCAAGUCUCAGGGGAAACUUUGAGAUGGCCUUGCAAAGGGUAUGGUAAUAAGCUGACGGACAUGGUCCUAACCACGCAGCCAAGUCCUAAGUCAACAGAUCUUCUGUUGAUAUGGAUGCAGUUCACAGACUAAAUGUCGGUCGGGGAAGAUGUAUUCUUCUCAUAAGAUAUAGUCGGACCUCUCCUUAAUGGGAGCUAGCGGAUGAAGUGAUGCAACACUGGAGCCGCUGGGAACUAAUUUGUAUGCGAAAGUAUAUUGAUUAGUUUUGGAGUACUCGUGGUCG
In short: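 Colonies from six replicate transformations of E. coli BL21(DE3) were pooled and amplicon-sequenced on an Illumina HiSeq 2500. The library placed an intron with all eight P1ex-region nucleotides randomised inside the knt kanamycin-resistance gene on pET-22b(+), and cells grew overnight at 37°C or 30°C on LB agar with or without 25 μg/mL kanamycin (plus 100 μg/mL carbenicillin, 50 μM IPTG, 0.2% rhamnose). Fitness is the DiMSum error-weighted combination of wild-type-normalised replicate fold changes, kanamycin versus none.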

Sequence | self-splicing fitness (ln) (30 °C) | self-splicing fitness (ln) (37 °C)
AAGUAGCAAUAUUACGAUGG | -3.03 ± 0.2 | -2.75 ± 0.33
UGUAAGCAAUAUUACGUAAC | -2.22 ± 0.15 | -2.91 ± 0.4
GCUGAGCAAUAUUACGCCUA | -1.55 ± 0.32 | -0.595 ± 0.2
AUAUAGCAAUAUUACGUGCU | -1.24 ± 0.092 | -0.807 ± 0.13
AACCAGCAAUAUUACGGGAU | -2.59 ± 0.097 | -1.6 ± 0.098
UCAUAGCAAUAUUACGUAAC | -3.57 ± 0.37 | -1.6 ± 0.31
ACAUAGCAAUAUUACGGGCA | -1.57 ± 0.11 | -1.76 ± 0.098
AAAAAGCAAUAUUACGGCGC | -0.402 ± 0.093 | 0.559 ± 0.13
UAAUAGCAAUAUUACGGGAU | -4.36 ± 0.46 | -2.49 ± 0.22
AUCCAGCAAUAUUACGUAAC | -1.82 ± 0.13 | -1.91 ± 0.22
GCCCAGCAAUAUUACGAUCU | -1.36 ± 0.092 | -1.47 ± 0.12
UAUGAGCAAUAUUACGAGCA | -2.47 ± 0.17 | -2.09 ± 0.31
UUCUAGCAAUAUUACGGGUA | -0.701 ± 0.18 | -0.842 ± 0.2
CGUGAGCAAUAUUACGCAAA |  | -1.84 ± 0.46
UUGAAGCAAUAUUACGGGGU | -2.29 ± 0.2 | -2.27 ± 0.26
AGGGAGCAAUAUUACGAUGG |  | -1.29 ± 0.32
AGUGAGCAAUAUUACGGGAG | -5.04 ± 0.41 | -2.38 ± 0.14
ACUAAGCAAUAUUACGAUCU | -0.809 ± 0.092 | 0.314 ± 0.1
AACGAGCAAUAUUACGGGGA | -2.72 ± 0.21 | -3.6 ± 0.34
GGCGAGCAAUAUUACGUAGA | -2.07 ± 0.093 | -1.27 ± 0.12
AAGCAGCAAUAUUACGCGCC | -1.33 ± 0.11 | -1.24 ± 0.15
AAACAGCAAUAUUACGACGG | -3.02 ± 0.092 | -1.13 ± 0.087
AAUGAGCAAUAUUACGAAUU | -2.71 ± 0.28 | -2.3 ± 0.39
UCGAAGCAAUAUUACGGCGC | -3.11 ± 0.34 | -2.04 ± 0.32
CAUUAGCAAUAUUACGCCUC | -1.17 ± 0.21 | -1.83 ± 0.31

Sequence | self-splicing fitness (ln) (30 °C) | self-splicing fitness (ln) (37 °C)
CCGCAGCAAUAUUACGUCGA | -1.06 ± 0.059 | -0.16 ± 0.069
ACUAAGCAAUAUUACGCCGA | -1.86 ± 0.18 | -0.197 ± 0.16
CACAAGCAAUAUUACGUCCU | -1.84 ± 0.12 | -1.05 ± 0.15
GCCCAGCAAUAUUACGGGGU | -3.84 ± 0.19 | -2.77 ± 0.24
UAUUAGCAAUAUUACGAACA | -0.315 ± 0.16 | 0.101 ± 0.14
GAGGAGCAAUAUUACGAUGA | -2.31 ± 0.24 | -1.42 ± 0.35
UUGCAGCAAUAUUACGACGG | -0.213 ± 0.076 | 0.395 ± 0.11
GCGUAGCAAUAUUACGCUGU | -3.16 ± 0.28 | 
ACCAAGCAAUAUUACGACUC | -1.56 ± 0.17 | -0.459 ± 0.2
GCACAGCAAUAUUACGAUCA | -0.983 ± 0.13 | -0.209 ± 0.14
GAAGAGCAAUAUUACGACGG | -2.5 ± 0.37 | -2.67 ± 0.48
ACGCAGCAAUAUUACGCGAG | -2.56 ± 0.12 | -0.987 ± 0.11
ACAUAGCAAUAUUACGGCAG | -1.29 ± 0.11 | -0.918 ± 0.16
AGUUAGCAAUAUUACGAUGC | -1.75 ± 0.2 | -0.0326 ± 0.17
UAGCAGCAAUAUUACGUCGU | -3.4 ± 0.14 | -1.97 ± 0.12
CCUCAGCAAUAUUACGCCGA | -3.12 ± 0.24 | -3.48 ± 0.27
AGUUAGCAAUAUUACGAAAU | -2.58 ± 0.13 | -1.62 ± 0.13
UAACAGCAAUAUUACGUUAA | -3.25 ± 0.2 | -1.6 ± 0.12
UACGAGCAAUAUUACGAAAU |  | -1.69 ± 0.25
UGAUAGCAAUAUUACGGAAC |  | -1.21 ± 0.42
CGCUAGCAAUAUUACGAAAA | -1.65 ± 0.16 | -1.98 ± 0.15
CGGCAGCAAUAUUACGAUCG | -2.76 ± 0.18 | -1.97 ± 0.19
GAAAAGCAAUAUUACGCACG | -0.543 ± 0.09 | -0.904 ± 0.12
UCAUAGCAAUAUUACGCUAG | -3.15 ± 0.22 | -1.34 ± 0.2
